Source: US20240101668A1 (WUGEN, published 2024)
Positions count from the first letter of the chain named.

B1: Polypeptide No. 134 (scFv, V domains shown)
VH: QVQLVQSGAEVKKPGASVKVSCKASGYTFDSYLLHWVRQAPGQGLEWMGMINPSGAGTTYAQKFQGRVTMTRDTSTSTVYMELSSLRSEDTAVYYCAKEGSIAAGYYFDSWGQGTLVTVSS
VL: DIQMTQSPSSLSASVGDRVTITCRASQSIDSWLAWYQQKPGKAPKLLIYAASSLQSGVPSRFSGSGSGTDFTLTISSLQPEDFATYYCQQSYTTPITFGGGTKVEIKR
notes: scFv
B2: Polypeptide No. 136 (scFv, V domains shown)
VH: QVQLVQSGAEVKKPGASVKVSCKASGDTLTNHFVHWVRQAPGQGLEWMGWMNPNSGNTGYAQKFQGRVTMTRDTSTSTVYMELSSLRSEDTAVYYCARDPQMGAVAGGFDYWGQGTLVTVSS
VL: B1 VL with S28R, D30G, S31N, T93S, T94P, I96L, G100P, E105D
notes: scFv
B3: Polypeptide No. 137 (scFv, V domains shown)
VH: QVQLVQSGAEVKKPGASVKVSCKASGYTFTDYYIHWVRQAPGQGLEWMGMVNPSGGSANYAQKFQGRVTMTRDTSTSTVYMELSSLRSEDTAVYYCAKDSAWQEPYYFDYWGQGTLVTVSS
VL: B1 VL with S28G, D30S, W32Y, A50D, S53N, Q55D, S56T, T93S, I96L
notes: scFv
B4: Polypeptide No. 140 (scFv, V domains shown)
VH: EVQLVESGGGLVKPGGSLRLSCAASGITVSSSWMHWVRQAPGKGLEWVSAIGTGGGTHYADSVKGRFTISRDDSKNTLYLQMNSLKTEDTAVYYCARDQGGQIDHWGQGTLVTVSS
VL: B1 VL with D30S, A50D, S53T, T93S, T94I, I96L
notes: scFv
B5: Polypeptide No. 139 (scFv, V domains shown)
VH: QVQLVQSGAEVKKPGASVKVSCKASGYTLSDHDINWVRQAPGQGLEWMGWMNPSTGNTGYAQKFQGRVTMTRDTSTSTVYMELSSLRSEDTAVYYCERDQLRFGAWFDPWGQGTLVTVSS
VL: B1 VL with S28G, D30R, S31N, W32Y, T93S, T94I, I96L
notes: scFv
B6: Polypeptide No. 138 (scFv, V domains shown)
VH: QVQLVQSGAEVKKPGASVKVSCKASGYTFSSYDMHWVRQAPGQGLEWMGVINPGGGYTNYAQKFQGRVTMTRDTSTSTVYMELSSLRSEDTAVYYCARDEGWELLLDYWGQGTLVTVSS
VL: EIVMTQSPATLSVSPGERATLSCRASQSVGSNLAWYQQKPGQAPRLLIYGASTRATGIPARFSGSGSGTEFTLTISSLQSEDFAVYYCQQSHSLPPTFGQGTRLEIKR
notes: scFv
B7: Polypeptide No. 141 (scFv, V domains shown)
VH: QVQLVQSGAEVKKPGASVKVSCKASGGTFSSYAISWVRQAPGQGLEWMGVISPNGDTTVYAQKFQGRVTMTRDTSTSTVYMELSSLRSEDTAVYYCARDRGVAHSYYYGMDVWGQGTLVTVSS
VL: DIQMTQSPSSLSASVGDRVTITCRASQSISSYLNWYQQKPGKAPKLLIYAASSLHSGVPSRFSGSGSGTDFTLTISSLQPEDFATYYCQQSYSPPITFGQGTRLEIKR
notes: scFv
B8: Polypeptide No. 135 (scFv, V domains shown)
VH: QVQLVQSGAEVKKPGASVKVSCKASGYSFTTYGITWVRQAPGQGLEWMGWINPNSGNAGYAQKFQGRVTMTRDTSTSTVYMELSSLRSEDTAVYYCASDLAGYSSGYFDLWGRGTLVTVSS
VL: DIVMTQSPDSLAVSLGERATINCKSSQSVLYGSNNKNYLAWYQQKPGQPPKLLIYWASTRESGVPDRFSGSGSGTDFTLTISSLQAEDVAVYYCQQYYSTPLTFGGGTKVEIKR
notes: scFv

target: T1, huCD33-G69-Fc recombinant protein (human, UniProt P20138 18-259); assay: BLI;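 note: biolayer interferometry: scFvs captured from periplasmic extracts on anti-V5-loaded streptavidin biosensors, antigen association for 2 min, buffer dissociation for 5 min, 1:1 Langmuir fit giving off-rate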
T1 construct: extracellular domain; also called CD33 R69G
T1 sequence (P20138 18-259 R69G): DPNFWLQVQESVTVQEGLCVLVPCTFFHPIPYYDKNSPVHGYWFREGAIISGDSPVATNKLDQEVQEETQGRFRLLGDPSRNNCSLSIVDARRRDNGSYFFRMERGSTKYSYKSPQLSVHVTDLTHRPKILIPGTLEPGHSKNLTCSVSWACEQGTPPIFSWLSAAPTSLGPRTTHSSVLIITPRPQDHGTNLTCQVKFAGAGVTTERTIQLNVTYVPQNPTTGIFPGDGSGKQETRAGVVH
Method: Discovered scFvs were analyzed for binding to huCD33-R69-His or huCD33-G69-Fc recombinant proteins (for anti-CD33 scFvs; for CLL-1 scFvs, huCLL1-K244-Avi-Tev-His or huCLL1-Q244-Avi-Tev-His were used; for FLT3, huFLT3-T227-His or huFLT3-M227-Fc were used) using BLI on a ForteBio Octet HTX instrument. Streptavidin-coated biosensors were loaded with biotinylated anti-V5 tag monoclonal antibody for 5 min and were then quenched and blocked with 20 μM amine-PEG2-Biotin for 5 min. scFvs were captured on biosensors from scFv clone periplasmic extracts. huCD33 (or huCLL-1, or huFLT3) proteins were then associated with the captured scFvs for 2 minutes, followed by dissociation with buffer (1×HBST [10 mM HEPES pH 7.4, 150 mM NaCl, 0.05% Tween-20], 1 g/L BSA) for 5 minutes. […] Data was fitted with 1:1 Langmuir equation and off-rate values were reported.

binding result | Binder
binds | B1
binds | B2
binds | B3
binds | B4
binds | B5
binds | B6
binds | B7
binds | B8

target: T2, huCD33-G69 stably expressed on Jurkat cells (human, UniProt P20138 18-364); assay: FACS on cells;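 note: fixed Jurkat lines probed with myc-tagged scFv periplasmic extracts, anti-myc PE flow cytometry, PE MFI fold binned − <2, + 2–10, ++ 10–30, +++ >30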
T2 construct: whole, on cells; >200,000 receptors per cell; also called CD33 Mutant; CD33 R69G
T2 sequence (P20138 18-364 R69G): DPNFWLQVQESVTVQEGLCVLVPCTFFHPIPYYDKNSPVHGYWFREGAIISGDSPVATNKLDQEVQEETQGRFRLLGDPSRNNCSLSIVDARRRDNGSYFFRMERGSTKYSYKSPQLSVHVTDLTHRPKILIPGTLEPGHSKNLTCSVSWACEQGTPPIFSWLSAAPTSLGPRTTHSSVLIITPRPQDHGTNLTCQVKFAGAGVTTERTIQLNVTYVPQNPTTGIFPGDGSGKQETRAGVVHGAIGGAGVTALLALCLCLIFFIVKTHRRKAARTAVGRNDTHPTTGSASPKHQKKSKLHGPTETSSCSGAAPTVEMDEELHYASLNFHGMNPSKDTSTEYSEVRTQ
Method: (§1) Jurkat cells were engineered to stably express either the huCD33-R69 or huCD33-G69 variant at >200,000 receptors per cell. Parental, huCD33-R69, and huCD33-G69 Jurkat cell lines were stained with differing levels of CellTrace Violet Cell Proliferation Kit (ThermoFisher, cat. #C34557) to barcode each cell line. Barcoded Jurkat cell lines were fixed with paraformaldehyde and incubated with myc-labeled scFv periplasmic extracts and a secondary anti-myc PE-conjugated monoclonal antibody. Appropriate positive and negative controls were used. Stained cells were analyzed by flow cytometry (CytoFLEX, Beckman Coulter, Inc.) and binding was assessed by change in PE mean fluorescence intensity (MFI) of the barcoded cell populations.
(§2) Data is disclosed below in Table 16c, reporting FACS fold change over parental as (−), indicating <2 fold; (+), indicating 2-10 fold; (++), indicating 10-30 fold; and (+++), indicating >30 fold.

FACS geometric mean fold change over Jurkat parental | Binder
> 30 fold | B1
10 to 30 fold | B2
> 30 fold | B3
2 to 10 fold | B4
> 30 fold | B5
10 to 30 fold | B6
> 30 fold | B7
> 30 fold | B8

target: T3, huCD33-R69 stably expressed on Jurkat cells (human, UniProt P20138 18-364); assay: FACS on cells;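 note: fixed Jurkat lines probed with myc-tagged scFv periplasmic extracts, anti-myc PE flow cytometry, PE MFI fold binned − <2, + 2–10, ++ 10–30, +++ >30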
T3 construct: whole, on cells; >200,000 receptors per cell; also called CD33 WT; CD33^ARG69
T3 sequence (P20138 18-364): as the sequence (P20138 18-364 R69G) above, with G52R counted along it
Method: as §1, §2

FACS geometric mean fold change over Jurkat parental | Binder
> 30 fold | B1
10 to 30 fold | B2
> 30 fold | B3
2 to 10 fold | B4
> 30 fold | B5
10 to 30 fold | B6
10 to 30 fold | B7
10 to 30 fold | B8
